Drawing on patent US20150175687A1, this text covers IC50 (nM), myostatin-induced luciferase, C2C12 pMARE-luc and Kd for 1 molecule.

The target in experiment [1] is recombinant mature myostatin (human) (UniProt O14793).
The target is the same in experiment [2]. The experiment is described as follows: BIAcore, myostatin immobilized. Background: SPR reads the build-up and loss of mass on a sensor chip optically.

Sequence of recombinant mature myostatin (human) (O14793 267-375): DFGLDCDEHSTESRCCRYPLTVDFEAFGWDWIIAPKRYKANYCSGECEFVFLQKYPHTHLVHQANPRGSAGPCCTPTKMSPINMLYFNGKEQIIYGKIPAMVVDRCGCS

B1: recombinant human activin receptor IIB/Fc chimera (Fc fusion)
chain: SGRGEAETRECIYYNANWELERTNQSGLERCEGEQDKRLHCYASWRNSSGTIELVKKGCWLDDFNCYDRQECVATEENPQVYFCCCEGNFCNERFTHLPEAGGPEVTYEPPPTAPT
Usually Kd stands for the equilibrium constant for the complex coming apart. With B1, the IC50 (nM), myostatin-induced luciferase, C2C12 pMARE-luc in experiment [1] was found to be 83 nM. Moreover, the Kd in experiment [2] was 7 nM.
